Data set [1] concerns the target T1, MBP-mTERF6.1 (without transit peptide) (Arabidopsis thaliana, UniProt Q9SZL6 25-333).
T1 sequence: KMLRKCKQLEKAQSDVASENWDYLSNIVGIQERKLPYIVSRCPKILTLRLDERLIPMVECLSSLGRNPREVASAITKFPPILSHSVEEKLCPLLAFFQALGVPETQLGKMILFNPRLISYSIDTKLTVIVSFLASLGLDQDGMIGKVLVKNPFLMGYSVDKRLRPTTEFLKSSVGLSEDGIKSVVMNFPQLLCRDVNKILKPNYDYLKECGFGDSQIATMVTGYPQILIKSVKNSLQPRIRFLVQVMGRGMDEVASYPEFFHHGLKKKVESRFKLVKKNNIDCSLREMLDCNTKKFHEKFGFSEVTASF
Kind of data set: EMSA; 5 mM MgCl2; stronger shift than probe A; weakened by 1-, 2-, 8-fold competitor; EMSA 20 uL: LightShift binding buffer, 5 mM MgCl2, 1 mM EDTA, 2.5% glycerol, 0.05% NP-40, 50 ng/uL poly(dI-dC), 20 fmol probe (printed 'fmal'), 0.5 ug protein. To be noted: protein: recombinant; tags: N-terminal MBP (pMAL-c5X); label: 5' biotin.

Data set [2] concerns the target T1, MBP-mTERF6.1 (without transit peptide). Kind of data set: EMSA; 5 mM MgCl2; shift greatly reduced by 200-fold unlabeled probe A; EMSA 20 uL: LightShift binding buffer, 5 mM MgCl2, 1 mM EDTA, 2.5% glycerol, 0.05% NP-40, 50 ng/uL poly(dI-dC), 20 fmol probe (printed 'fmal'), 0.5 ug protein. Particulars: protein: recombinant; tags: N-terminal MBP (pMAL-c5X); label: 5' biotin. For orientation: A gel shift assay detects complexes by their altered migration in electrophoresis.

Turning to AATTTCTATTTTCCAGTCGAAC (ssDNA) [probe B (22 nt, single strand)], in data set [1], the binding result is listed as “binds”.

B1: probe A (rpoA 3'-end, 122 bp) (dsDNA)
DNA 1: AATTTCTATTTTCCAGTCGAACCCATTTTAATTAATTAATTAAATTAATTAGAATTAGATATGTATCTAGGGAGAATTCATTTGGAAATGACTACTCCCTAGATACCTCCCTAGATACCCAC
DNA 2: GTGGGTATCTAGGGAGGTATCTAGGGAGTAGTCATTTCCAAATGAATTCTCCCTAGATACATATCTAATTCTAATTAATTTAATTAATTAATTAAAATGGGTTCGACTGGAAAATAGAAATT
B1: in data set [2], the binding result is given as “binds”.

The values above are taken from paper PMC6085346, “A nuclear-encoded protein, mTERF6, mediates transcription termination of rpoA polycistron for plastid-encoded RNA polymerase-dependent chloroplast gene expression and chloroplast development”.
